{
  "source": "patent US20100203031",
  "experiment_in_all_cases": "cell_activity",
  "key": {"[1]": {"tested_on": "HprCH3.3/HprCH3.4 G19S heterodimer chain1: Y33H,42A,43L; chain2: G19S,S32T,Y33H,Q44R,R68Y,R70S,72T,D75N,I77N", "details": "[none]; CHO chromosomal assay, maximum"}, "[2]": {"tested_on": "HprCH3.3/HprCH3.4 heterodimer chain1: KNSHQS/QRRDI/42A43L (Y33H,42A,43L); chain2: KNTHQS/RYSNN/72T (S32T,Y33H,Q44R,R68Y,R70S,72T,D75N,I77N)", "details": "[none]; CHO chromosomal assay, maximum"}, "[3]": {"tested_on": "HprCH3.3 G19S/HprCH3.4 G19S heterodimer chain1: G19S,Y33H,42A,43L; chain2: G19S,S32T,Y33H,Q44R,R68Y,R70S,72T,D75N,I77N", "details": "[none]; no LacZ+ foci"}, "[4]": {"tested_on": "HprCH3.3 G19S/HprCH3.4 heterodimer chain1: G19S,Y33H,42A,43L; chain2: S32T,Y33H,Q44R,R68Y,R70S,72T,D75N,I77N", "details": "[none]; CHO chromosomal assay, maximum"}, "[5]": {"tested_on": "HBB5 H3 V105A/H4a heterodimer H3: 30S,33H,38R,44K,68Y,70S,77T,V105A; H4a: 19S,32T,44A,70S,75E,77R,80K,96R", "details": "[none]; yeast beta-galactosidase value"}, "[6]": {"tested_on": "HBB5 H3 V105A I132V/H4a heterodimer H3: 30S,33H,38R,44K,68Y,70S,77T,V105A,I132V; H4a: 19S,32T,44A,70S,75E,77R,80K,96R", "details": "[none]; yeast beta-galactosidase value"}, "[7]": {"tested_on": "HBB5 H3 I132V/H4a heterodimer H3: 30S,33H,38R,44K,68Y,70S,77T,I132V; H4a: 19S,32T,44A,70S,75E,77R,80K,96R", "details": "[none]; yeast beta-galactosidase value"}, "[8]": {"tested_on": "HBB5 H3 I132V/H4b heterodimer H3: 30S,33H,38R,44K,68Y,70S,77T,I132V; H4b: 24V,43L,44A,70S,75E,77R,80K,87L,96R", "details": "[none]; yeast beta-galactosidase value"}, "[9]": {"tested_on": "HBB5 H3/H4a heterodimer H3: 30S,33H,38R,44K,68Y,70S,77T; H4a: 19S,32T,44A,70S,75E,77R,80K,96R", "details": "[none]; yeast beta-galactosidase value"}, "[10]": {"tested_on": "HBB5 H3 V105A I132V/H4b heterodimer H3: 30S,33H,38R,44K,68Y,70S,77T,V105A,I132V; H4b: 24V,43L,44A,70S,75E,77R,80K,87L,96R", "details": "[none]; yeast beta-galactosidase value"}, "[11]": {"tested_on": "HBB5 H3/H4b heterodimer H3: 30S,33H,38R,44K,68Y,70S,77T; H4b: 24V,43L,44A,70S,75E,77R,80K,87L,96R", "details": "[none]; yeast beta-galactosidase value"}, "[12]": {"tested_on": "HBB5 H3 V105A/H4b heterodimer H3: 30S,33H,38R,44K,68Y,70S,77T,V105A; H4b: 24V,43L,44A,70S,75E,77R,80K,87L,96R", "details": "[none]; yeast beta-galactosidase value"}},
  "data": [
    {"sequence": "TCGAGATGTCATGAAAGAGATGGA (double strand) [HprCH3]", "values": [
      {"measurement": "activity (LacZ repair frequency)", "setting": "[1]", "result": 0.012},
      {"measurement": "activity (LacZ repair frequency)", "setting": "[2]", "result": 0.002},
      {"measurement": "activity (LacZ repair frequency)", "setting": "[3]", "result": "< 6e-06"},
      {"measurement": "activity (LacZ repair frequency)", "setting": "[4]", "result": 0.0115}
    ]},
    {"sequence": "TTGGTCTCCTTAAACCTGTCTTGA (double strand) [HBB5]", "values": [
      {"measurement": "activity", "setting": "[5]", "result": 0.47},
      {"measurement": "activity", "setting": "[6]", "result": 0.77},
      {"measurement": "activity", "setting": "[7]", "result": 0.49},
      {"measurement": "activity", "setting": "[8]", "result": 0.37},
      {"measurement": "activity", "setting": "[9]", "result": 0.34},
      {"measurement": "activity", "setting": "[10]", "result": 0.56},
      {"measurement": "activity", "setting": "[11]", "result": 0.29},
      {"measurement": "activity", "setting": "[12]", "result": 0.37}
    ]}
  ]
}
